“And” between values parts separate entries of the source, which are not always exact repeats. Equal entries are not always repeated.
How the values were obtained:
Type in all cases: biochemical, human
[1] = system: PAPSS2; assay: PAPSS2 enzyme activity, coupled radiochemical assay (PAPS generation then SULT1E1-catalyzed sulfation of [3H]estradiol) with COS-1 expressed recombinant allozymes; details: for % WT activity / decrease in enzyme activity compared with the wild type enzyme: His-tagged recombinant allozyme, loxP-modified p91023(b) vector, COS-1 cells, corrected for transfection efficiency; for activity relative to the reference PAPSS2 (in words): general statement in the description
Excerpt: Variant alleles of the four non-synonymous PAPSS2 cSNPs observed during the resequencing experiments were created using the QuickChange Site-Directed Mutagenesis Kit (Stratagene, La Jolla, Calif.), with wild type PAPSS2 cDNA in pUni as template. The sequence of the pUni insert was confirmed by completely sequencing both strands before recombination with the loxP-modified p91023(b) acceptor vector. pUni donor vectors that contained wild type and variant PAPSS2 cDNAs, as well as empty pUni, then were combined with the loxP-modified p91023(b) acceptor vector to generate the final expression constructs. In all cases, the fusion junctions of resultant expression constructs were sequenced to confirm that the construct was a dimer consisting of only a single donor and a single acceptor vector. These expression constructs were used to transfect COS-1 cells using TransFast™ reagent (Promega) with a 1:1 charge ratio. pSV-β-galactosidase (Promega) was co-transfected with each construct as an internal control to correct for transfection efficiency. Transfected COS-1 cells were harvested after 48 hours and were homogenized with a Polytron homogenizer (Brinkmann Instruments, Westbury, N.Y.) in 25 mM potassium phosphate buffer, pH 7.8, containing 1 mM dithiothreitol (DTT) and 1 mM EDTA. The homogenates were centrifuged at 15,000 g for 15 minutes, and the resultant supernatant preparations were used to perform enzyme assays, substrate kinetic studies and Western blot analyses. In some cases, aliquots of these cytosol preparations were stored at −80° C. prior to assay.
PAPSS2 Enzyme Activity: PAPSS2 activity was measured with a coupled radiochemical assay. See Xu et al., 2001, supra. Briefly, PAPS is generated from ATP and Na2SO4 in a PAPSS2-catalyzed reaction. The generated PAPS is then used as a substrate for the SULT1E1-catalyzed sulfate conjugation of [2,4,6,7-^3H]estradiol, a radioactively labeled sulfate acceptor substrate. The cell homogenate preparations of recombinant PAPSS2 allozymes described above were used for the activity studies without any further purification. The protein concentration of each recombinant protein preparation was determined by the dye-binding method of Bradford with bovine serum albumin (BSA) as a standard.
PAPS synthesis was catalyzed by recombinant wild-type PAPSS2 or PAPSS2 allozymes (present in the cell homogenate preparations described above) in the presence of 1 mM ATP, 16 mM Na2SO4, 1 mM MgCl2, and 2 mM DTT in 60 mM glycine-NaOH buffer, pH 8.6. Blank samples included the same quantity of COS-1 cytosol protein from cells that had been transfected with empty expression vector to make it possible to correct for endogenous activity. Reaction mixtures were incubated at 37° C. for 20 minutes, and then terminated by heating at 100° C. for 1 minute. An aliquot from this PAPS-generating reaction was then added to a second, coupled reaction containing recombinant human SULT1E1 isolated from COS-1 cells transfected with a SULT1E1 expression construct (see Aksoy et al., Biochem. Biophys. Res. Commun., 200:1621–1629 (1994)). The coupled reaction also included 27 nM [2,4,6,7-^3H]estradiol, 8 mM DTT and 1.25 mM MgCl2 in 10 mM potassium phosphate buffer, pH 6.5. The second, SULT1E1-catalyzed reactions were incubated at 37° C. for 20 minutes, and then terminated by the addition of KOH, followed by organic solvent extraction performed with chloroform. Radioactivity of the sulfate conjugated [2,4,6,7-^3H]estradiol in the aqueous phase after organic solvent extraction was then measured in a liquid scintillation counter. PAPSS activities of recombinant PAPSS2 allozymes were compared after correction for transfection efficiency by measuring the activity of cotransfected P-galactosidase. β-Galactosidase activity in the COS-1 cell preparations was measured with the β-Galactosidase Assay System (Promega) as described by the manufacturer. […]

[2] = system: PAPSS2; assay: as above; details: non-His-tagged expression vector p91023(b), COS-1 cells, corrected for transfection efficiency
[3] = system: PAPSS2; assay: Substrate kinetic studies of recombinant PAPSS2 with ATP and Na2SO4
Method: To estimate apparent Km values of PAPSS2 for the two reaction cosubstrates, a series of ATP (0.125–4 mM) and Na2SO4 (0.125–16 mM) concentrations were tested with the recombinant allozymes. When ATP was the varied substrate, the concentration of Na2SO4 was 4 mM, and when Na2SO4 was the varied substrate, the concentration of ATP was 1 mM. Blanks for each substrate concentration were included by assaying COS-1 cell cytosol after transfection with empty vector.
Data Analysis: Apparent Km values were calculated by using the method of Wilkinson with a computer program written by Cleland. Wilkinson, Biochem. J., 80:324–332 (1961); and Cleland, Nature, 198:[…] (1963). Statistical comparisons of data were performed by ANOVA with the StatView program, version 4.5 (Abacus Concepts, Inc., Berkeley, Calif.). Apparent Km, S50 and Vmax values for the wild-type and variant PAPSS2 allozymes were compared by the use of unpaired Student's t-test.
Alterations in amino acid sequence can alter enzyme substrate affinity and/or catalytic efficiency. Decreased activity of the Val291Met allozyme—without a significant alteration in level of enzyme protein—could have resulted from a change in substrate kinetics. Therefore, a series of ATP (0.125–4 mM) and Na2SO4 (0.125–16 mM) concentrations were used to estimate apparent Km values for recombinant wild type PAPSS2 and for the Val291Met variant allozyme. […] ATP concentrations at which 50% maximal velocity was achieved (S50 values) were 0.70 and 0.95 mM for the wild type and variant allozymes, respectively (Table 4). In both cases, the Hill coefficient was greater than 2, […]. In contrast, substrate kinetics of both allozymes for Na2SO4 conformed to Michaelis-Menten predictions (FIG. 5B). […] In summary, decreased activity for the Val1291Met variant appeared to result from an alteration in substrate kinetics, while decreased activity for the Glu10Lys allozyme, in contrast, resulted primarily from a decrease in the quantity of enzyme protein. Because the Val291Met variant was encoded by a construct that contained the most common PAPSS2 nonsynonymous cSNP, these observations could have functional implications for the sulfate conjugation of both endogenous and/or exogenous compounds.

Molecule	% WT activity [1]	activity reduced compared with wild type [2]	decrease in enzyme activity compared with the wild type enzyme [1]	activity relative to the reference PAPSS2 (in words) [1]	S50 for ATP (ATP concentration at which 50% maximal velocity was achieved) ([3]; ATP varied 0.125-4 mM, Na2SO4 4 mM)	Km ([3]; apparent Km, Na2SO4 varied 0.125-16 mM, ATP 1 mM)	Vmax/S50, ATP ([3]; ratio, wild type = 100, ATP as varied substrate)	Vmax, ATP ([3]; relative Vmax, wild type = 100, ATP as varied substrate)	Vmax, Na2SO4 ([3]; relative Vmax, wild type = 100, Na2SO4 as varied substrate)
Arg432Lys: PAPSS2 polypeptide allozyme having a lysine at amino acid 432 in place of arginine (adenine at nucleotide 1295) (protein) MSGIKKQKTENQQKSTNVVYQAHHVSRNKRGQVVGTRGGFRGCTVWLTGLSGAGKTTISFALEEYLVSHAIPCYSLDGDNVRHGLNRNLGFSPGDREENIRRIAEVAKLFADAGLVCITSFISPFAKDRENARKIHESAGLPFFEIFVDAPLNICESRDVKGLYKRARAGEIKGFTGIDSDYEKPETPERVLKTNLSTVSDCVHQVVELLQEQNIVPYTIIKDIHELFVPENKLDHVRAEAETLPSLSITKLDLQWVQVLSEGWATPLKGFMREKEYLQVMHFDTLLDDGVINMSIPIVLPVSAEDKTRLEGCSKFVLAHGGRRVAILRDAEFYEHRKEERCSRVWGTTCTKHPHIKMVMESGDWLVGGDLQVLEKIRWNDGLDQYRLTPLELKQKCKEMNADAVFAFQLRNPVHNGHALLMQDTCRRLLEKGYKHPVLLLHPLGGWTKDDDVPLDWRMKQHAAVLEEGVLDPKSTIVAIFPSPMLYAGPTEVQWHCRSRMIAGANFYIVGRDPAGMPHPETKKDLYEPTHGGKVLSMAPGLTSVEIIPFRVAAYNKAKKAMDFYDPARHNEFDFISGTRMRKLAREGENPPDGFMAPKAWKVLTDYYRSLEKN	104.8% and 104.8 ± 10.1%	–	–	activity that is comparable to the reference PAPSS2	–	–	–	–	–
Glu10Lys: PAPSS2 polypeptide allozyme having a lysine at amino acid residue 10 in place of glutamic acid (adenine at nucleotide 28) (protein) MSGIKKQKTKNQQKSTNVVYQAHHVSRNKRGQVVGTRGGFRGCTVWLTGLSGAGKTTISFALEEYLVSHAIPCYSLDGDNVRHGLNRNLGFSPGDREENIRRIAEVAKLFADAGLVCITSFISPFAKDRENARKIHESAGLPFFEIFVDAPLNICESRDVKGLYKRARAGEIKGFTGIDSDYEKPETPERVLKTNLSTVSDCVHQVVELLQEQNIVPYTIIKDIHELFVPENKLDHVRAEAETLPSLSITKLDLQWVQVLSEGWATPLKGFMREKEYLQVMHFDTLLDDGVINMSIPIVLPVSAEDKTRLEGCSKFVLAHGGRRVAILRDAEFYEHRKEERCSRVWGTTCTKHPHIKMVMESGDWLVGGDLQVLEKIRWNDGLDQYRLTPLELKQKCKEMNADAVFAFQLRNPVHNGHALLMQDTCRRLLERGYKHPVLLLHPLGGWTKDDDVPLDWRMKQHAAVLEEGVLDPKSTIVAIFPSPMLYAGPTEVQWHCRSRMIAGANFYIVGRDPAGMPHPETKKDLYEPTHGGKVLSMAPGLTSVEIIPFRVAAYNKAKKAMDFYDPARHNEFDFISGTRMRKLAREGENPPDGFMAPKAWKVLTDYYRSLEKN	72.6 ± 7.2%	14.1%	27.4%	reduced activity	–	–	–	–	–

Now from value to molecule, other results behind:

% WT activity [1]	activity reduced compared with wild type [2]	Molecule	decrease in enzyme activity compared with the wild type enzyme [1]	activity relative to the reference PAPSS2 (in words) [1]	S50 for ATP (ATP concentration at which 50% maximal velocity was achieved) ([3]; ATP varied 0.125-4 mM, Na2SO4 4 mM)	Km ([3]; apparent Km, Na2SO4 varied 0.125-16 mM, ATP 1 mM)	Vmax/S50, ATP ([3]; ratio, wild type = 100, ATP as varied substrate)	Vmax, ATP ([3]; relative Vmax, wild type = 100, ATP as varied substrate)	Vmax, Na2SO4 ([3]; relative Vmax, wild type = 100, Na2SO4 as varied substrate)
37.1 ± 6.9%	57.4%	Val291Met: PAPSS2 polypeptide allozyme having a methionine at amino acid 291 in place of valine (adenine at nucleotide 871) (protein) MSGIKKQKTENQQKSTNVVYQAHHVSRNKRGQVVGTRGGFRGCTVWLTGLSGAGKTTISFALEEYLVSHAIPCYSLDGDNVRHGLNRNLGFSPGDREENIRRIAEVAKLFADAGLVCITSFISPFAKDRENARKIHESAGLPFFEIFVDAPLNICESRDVKGLYKRARAGEIKGFTGIDSDYEKPETPERVLKTNLSTVSDCVHQVVELLQEQNIVPYTIIKDIHELFVPENKLDHVRAEAETLPSLSITKLDLQWVQVLSEGWATPLKGFMREKEYLQVMHFDTLLDDGMINMSIPIVLPVSAEDKTRLEGCSKFVLAHGGRRVAILRDAEFYEHRKEERCSRVWGTTCTKHPHIKMVMESGDWLVGGDLQVLEKIRWNDGLDQYRLTPLELKQKCKEMNADAVFAFQLRNPVHNGHALLMQDTCRRLLERGYKHPVLLLHPLGGWTKDDDVPLDWRMKQHAAVLEEGVLDPKSTIVAIFPSPMLYAGPTEVQWHCRSRMIAGANFYIVGRDPAGMPHPETKKDLYEPTHGGKVLSMAPGLTSVEIIPFRVAAYNKAKKAMDFYDPARHNEFDFISGTRMRKLAREGENPPDGFMAPKAWKVLTDYYRSLEKN	62.9%	reduced activity	0.95 mM and 0.95 ± 0.02 mM	3000 µM	27.8 ± 3.3	37 ± 3.9	45 ± 2.4
107.7% and 107.7 ± 2.9%	–	Met281Leu: PAPSS2 polypeptide allozyme having a leucine at amino acid residue 281 in place of methionine (thymine at nucleotide 841) (protein) MSGIKKQKTENQQKSTNVVYQAHHVSRNKRGQVVGTRGGFRGCTVWLTGLSGAGKTTISFALEEYLVSHAIPCYSLDGDNVRHGLNRNLGFSPGDREENIRRIAEVAKLFADAGLVCITSFISPFAKDRENARKIHESAGLPFFEIFVDAPLNICESRDVKGLYKRARAGEIKGFTGIDSDYEKPETPERVLKTNLSTVSDCVHQVVELLQEQNIVPYTIIKDIHELFVPENKLDHVRAEAETLPSLSITKLDLQWVQVLSEGWATPLKGFMREKEYLQVLHFDTLLDDGVINMSIPIVLPVSAEDKTRLEGCSKFVLAHGGRRVAILRDAEFYEHRKEERCSRVWGTTCTKHPHIKMVMESGDWLVGGDLQVLEKIRWNDGLDQYRLTPLELKQKCKEMNADAVFAFQLRNPVHNGHALLMQDTCRRLLERGYKHPVLLLHPLGGWTKDDDVPLDWRMKQHAAVLEEGVLDPKSTIVAIFPSPMLYAGPTEVQWHCRSRMIAGANFYIVGRDPAGMPHPETKKDLYEPTHGGKVLSMAPGLTSVEIIPFRVAAYNKAKKAMDFYDPARHNEFDFISGTRMRKLAREGENPPDGFMAPKAWKVLTDYYRSLEKN	–	activity that is comparable to the reference PAPSS2	–	–	–	–	–

— US7186551B1, “3′-phosphoadenosine -5′-phosphosulfate synthetase 2 (PAPSS2) sequence variants” (Mayo Foundation for Medical Education and Research, priority 2001, dated 2007)
